T1: rat GDNF receptor-alpha (GDNFR-α) expressed on cells from the rat cDNA clone (rat, UniProt Q62997 25-430, GPI-anchored to the cell membrane)
T1 construct: also called rGDNFR-α
T1 sequence: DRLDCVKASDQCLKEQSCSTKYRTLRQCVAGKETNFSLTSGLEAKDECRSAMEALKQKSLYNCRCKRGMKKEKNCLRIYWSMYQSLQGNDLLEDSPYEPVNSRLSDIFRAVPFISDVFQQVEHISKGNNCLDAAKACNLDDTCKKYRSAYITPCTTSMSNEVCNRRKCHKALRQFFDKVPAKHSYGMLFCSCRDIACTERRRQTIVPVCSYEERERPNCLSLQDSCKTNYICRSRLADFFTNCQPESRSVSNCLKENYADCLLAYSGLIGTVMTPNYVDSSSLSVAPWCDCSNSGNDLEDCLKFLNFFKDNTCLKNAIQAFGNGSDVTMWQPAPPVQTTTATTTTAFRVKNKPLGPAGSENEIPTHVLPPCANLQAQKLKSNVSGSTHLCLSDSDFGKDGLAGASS

T2: human GDNFR-α Related Receptor 2 (GRR2), endogenously expressed on LA-N-5 neuroblastoma cells (human, UniProt O00451 22-444)
T2 construct: whole, on cells; GDNFR-α mRNA was not detected; The cells also express Ret; also called hGRR2
T2 sequence (looked up): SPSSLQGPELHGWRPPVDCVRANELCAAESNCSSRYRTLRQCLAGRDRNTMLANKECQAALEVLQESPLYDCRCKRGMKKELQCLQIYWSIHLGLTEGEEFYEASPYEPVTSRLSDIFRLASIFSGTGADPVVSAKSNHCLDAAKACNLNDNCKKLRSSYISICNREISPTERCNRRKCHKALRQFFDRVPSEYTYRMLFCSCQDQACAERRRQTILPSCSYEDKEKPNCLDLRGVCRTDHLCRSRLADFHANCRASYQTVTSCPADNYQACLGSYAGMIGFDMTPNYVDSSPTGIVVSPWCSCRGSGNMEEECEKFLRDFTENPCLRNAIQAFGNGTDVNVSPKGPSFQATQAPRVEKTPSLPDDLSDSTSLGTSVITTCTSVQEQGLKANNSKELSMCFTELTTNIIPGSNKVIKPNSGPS


Columns and labels:
[1] = target: T1, rat GDNF receptor-alpha (GDNFR-α) …; test: equilibrium binding of [125I]GDNF to NGR-38 cells, Scatchard plot; low affinity site
Experimental: (§1) Following incubation, unbound [¹²⁵I]GDNF was removed and the radioactivity associated with the cells was determined as described in Experimental Procedures. Results are depicted in FIG. 7: (A) Equilibrium binding of [¹²⁵I]GDNF to NGR-38 cells (circles) and Neuro-2a cells (squares) in the presence (open circles and open squares) or absence (filled circles and filled squares) of unlabeled GDNF; (B) Scatchard analysis of [¹²⁵I]GDNF binding to NGR-38 cells.
(§2) Neuro-2a cells (ATCC #CCL 131) were transfected with an expression plasmid, as described above, using the Calcium Phosphate Transfection System (GIBCO/BRL) according to the manufacturer's directions. Transfected cells were selected for expression of the plasmid by growth in 400 μg/mL G418 antibiotic (Sigma). G418 resistant clones were expanded and assayed for GDNFR-α expression by binding to [¹²⁵I]GDNF (Amersham, Inc., custom iodination, catalog #IMQ1057). Cells from each clone were seeded at a density of 3×10⁴ cells/cm² in duplicate wells of 24-well tissue culture plates (Becton Dickinson) pre-coated with polyornithine. […] Cells were then washed four times with ice-cold washing buffer, lysed in 1 M NaOH, and the cell-associated radiolabel quantitated in a 1470 Wizard Automated Gamma Counter (Wallac Inc.). […]

[2] = target: T1, rat GDNF receptor-alpha (GDNFR-α) …; test: GDNF binding to 293T cells expressing GDNFR-α; low affinity sites
[3] = target: T1, rat GDNF receptor-alpha (GDNFR-α) …; test: 50 pM [125I]GDNF on NGR-33 cells with or without excess unlabeled GDNF, gamma counting
Experimental: (§3) Neuro-2a cells were transfected with a mammalian expression vector containing the rat GDNFR-α cDNA (such as the expression plasmid described above). Three clonal lines, NGR-16, NGR-33, and NGR-38 were tested for their ability to bind [¹²⁵I]GDNF. The unbound [¹²⁵I]GDNF was removed at the end of the incubation and the amount of radioactivity associated with the cells was determined as described in Experimental Procedures. […] Binding could be effectively competed by the addition of 500 nM unlabeled GDNF.
as §2

[4] = target: T1, rat GDNF receptor-alpha (GDNFR-α) …; test: 50 pM [125I]GDNF on NGR-38 cells with or without excess unlabeled GDNF, gamma counting
Experimental: as §3, §2

[5] = target: T2, human GDNFR-α Related Receptor 2 …; test: summary of Example 10 (cell binding and cross-linking)
[6] = target: T1, rat GDNF receptor-alpha (GDNFR-α) …; test: equilibrium binding of [125I]GDNF to NGR-38 cells, Scatchard plot; high affinity site
Experimental: as §1, §2

[7] = target: T1, rat GDNF receptor-alpha (GDNFR-α) …; test: GDNF binding to 293T cells expressing GDNFR-α; high affinity sites
[8] = target: T1, rat GDNF receptor-alpha (GDNFR-α) …; test: Scatchard analysis of GDNF binding to 293T cells transfected with a GDNFR-α cDNA clone in pBKRSV; low affinity site
[9] = target: T1, rat GDNF receptor-alpha (GDNFR-α) …; test: 50 pM [125I]GDNF on NGR-16 cells with or without excess unlabeled GDNF, gamma counting
Experimental: as §3, §2

Kd [1]	Kd [2]	ratio of [125I]GDNF bound in the absence and presence of unlabeled GDNF [3]	ratio of [125I]GDNF bound in the absence and presence of unlabeled GDNF [4]	binding result [5]	Kd [6]	Kd [7]	Kd [8]	ratio of [125I]GDNF bound in the absence and presence of unlabeled GDNF [9]	Binder
332 pM	~200 pM	8	16	binds	1.5 pM	~2 pM	~500 pM	12.8	glial cell line-derived neurotrophic factor (GDNF), recombinant human (ligand, UniProt P39905 78-211, looked up, radio-iodinated ([125I]) in the binding and cross-linking assays; unlabeled as competitor and in the phosphorylation assays, mature; also called unlabeled GDNF) SPDKQMAVLPRRERNRQAAAANPENSRGKGRRGQRGKNRGCVLTAIHLNVTDLGLGYETKEELIFRYCSGSCDAAETTYDKILKNLSRNRRLVSDKVGQACCRPIAFDDDLSFLDDNLVYHILRKHSAKRCGCI
–	–	–	–	binds	–	–	–	–	neurturin, recombinant human (ligand, UniProt Q99748 96-197, looked up, radio-iodinated ([125I]) in the binding and cross-linking assays; unlabeled as competitor and in the phosphorylation assays, mature; also called NTN) ARLGARPCGLRELEVRVSELGLGYASDETVLFRYCAGACEAAARVYDLGLRRLRQRRRLRRERVRAQPCCRPTAYEDEVSFLDAHSRYHTVHELSARECACV

Source: patent US20040235714A1 (Amgen, published 2004)
